The supplement of paper PMC12764529
± gives the half width of the 95% confidence interval.

Assays:
[1] = folding stability dG unfold from trypsin proteolysis; higher = more stable
Procedure, shortened: (§1)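 Unfolding free energy was derived, per protease or combined, against a sequence-predicted unfolded-state K50 and a shared folded-state K50, starting from K50 inferred by Bayesian fitting of sequencing counts. Digestion with trypsin and chymotrypsin was carried out on designed mini-proteins under 80 residues without cysteine in a PA-tagged cDNA display construct. Only designs with AlphaFold2 dimer inter-PAE above 15 were kept.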

[2] = folding stability dG unfold from chymotrypsin proteolysis; higher = more stable
Procedure, shortened: as §1

[3] = folding stability dG unfold (combined trypsin and chymotrypsin); higher = more stable
Procedure, shortened: as §1

Sequence | folding stability dG unfold [1] | folding stability dG unfold [2] | folding stability dG unfold [3]
SAGGMKVTRLPNALVFEYPLPNSTLRIVVTPGDGTYTLELYRDGKLIATFPSPGPVADLVEAAIKALSAGGS [r8_276_TrMRF] | 2.55 ± 0.053 kcal/mol | 3.2 ± 0.033 kcal/mol | 3.01 ± 0.073 kcal/mol
SAGGSAGGSAGPPVTLDEIRDHLPPENIEDVEVNPPEGWVVIEFKPPGGEKQEITIRADDSAGGSAGGSAGG [r17_374_TrROS] | 0.198 ± 0.062 kcal/mol | 0.271 ± 0.021 kcal/mol | 0.277 ± 0.13 kcal/mol
SAGGSAGGSAMKTIPVKTKEEAEKLAEELKASGYGEVKKTKSGNIIVKAPDGIDVKIVVPEKSAGGSAGGSA [r18_126_JUSTAS] | 0.098 ± 0.068 kcal/mol | 0.712 ± 0.072 kcal/mol | 0.574 ± 0.19 kcal/mol
SAGGSAGGSAKTITITFLFDSPENAKDFVREIAQEDGMKIKVEWERDPEGWWWVTATIEVPSAGGSAGGSAG [r3_273_TrROS] | 2.36 ± 0.1 kcal/mol | 3.48 ± 0.13 kcal/mol | 3.14 ± 0.15 kcal/mol
SAGGSAGGSAGGGSMSITVPMSPEEGKKLAEEIKEKLKSEGNPVEVTVTIVSPTDPSLLSSAGGSAGGSAGG [r7_776_JUSTAS] | 0.627 ± 0.04 kcal/mol | 0.167 ± 0.066 kcal/mol | 0.41 ± 0.17 kcal/mol
SAGGSAGGSAGGWNIQVNPDNLKPGKEYRISITHPNGPPIPFEVRLKADGDGDWEFKIESAGGSAGGSAGGS [r10_390_TrROS] | -0.0699 ± 0.059 kcal/mol | 0.183 ± 0.12 kcal/mol | 0.134 ± 0.091 kcal/mol
SAGGSAGGSAGGKWIMVDSPEDIKEFAEDQGYKIKVDNVHPFPGDKNHYMVWIEIEPPGSAGGSAGGSAGGS [r10_126_TrROS] | 1.19 ± 0.12 kcal/mol | 1.13 ± 0.18 kcal/mol | 1.18 ± 0.14 kcal/mol
SAGGSAGGSAGGGKSITKVYTLPNGGKAVAVYNPETGKVEVYFFKPNGKLLEKKTFKAKSAGGSAGGSAGGS [r10_1044_TrMRF] | 2.18 ± 0.068 kcal/mol | 2.84 ± 0.07 kcal/mol | 2.51 ± 0.11 kcal/mol
SAGGSAGGPLVLRIETPEDKVLVLVLPEEAEKLPPKELAEIAAKEFAALPGVKEVKVEIAPLPLSAGGSAGG [r6_710_TrMRF] | 0.885 ± 0.058 kcal/mol | 1.11 ± 0.15 kcal/mol | 1.03 ± 0.12 kcal/mol
SLIEALRAALEAGADEVTLRIVMPEEEAEELEKALEDLGFEIVSRERVEVDGRRYLVMEIRLRAPPPEEPSA [r9_498_TrROS_Hall] | 3.92 ± 0.095 kcal/mol | 4.93 ± 0.084 kcal/mol | 4.59 ± 0.1 kcal/mol
SAGGDKNAKPIKPITISFTLEDGSKKTITATFYKDAVIVEITYINPKTGKPFTKTFVFKKKGVKLLLSAGGS [r16_419_TrMRF] | 2.43 ± 0.096 kcal/mol | 3.19 ± 0.094 kcal/mol | 3.02 ± 0.21 kcal/mol
SAGGSVVTIVEVVPEDKKIVIKAPGNPITIPLENIKEIKLIPEKGYLEITINNTTIKVPLNNPNSISAGGSA [r2_48_JUSTAS] | 0.308 ± 0.051 kcal/mol | 1.09 ± 0.058 kcal/mol | 0.779 ± 0.071 kcal/mol
SAGGASLDDLPLEGIEVLEEEVIPLPNGSTLRKFLVKKPSPGPPELLVEVTEFVDEGSSSVSVTPLGSAGGS [r16_469_JUSTAS] | 0.179 ± 0.054 kcal/mol | -0.301 ± 0.45 kcal/mol | 0.0997 ± 0.14 kcal/mol
SAGGSAGGSAKIIIIEEDPEEAIRRVEELFGPGARIEPVRVVRVGDKVYVAVGIDIPASLASAGGSAGGSAG [r3_87_TrMRF] | 1.094 ± 0.0092 kcal/mol | 0.9 ± 0.017 kcal/mol | 0.977 ± 0.044 kcal/mol
SAGGDYVKIDFTVMIPTPEQAEEMAEEIKNFFRFMGIKEVKIKVQRNPNNGMYYVTVDIEIRMPPGAVSAGG [r19_92_TrROS] | 3.34 ± 0.2 kcal/mol | 5.12 ± 0.1 kcal/mol | 4.82 ± 0.17 kcal/mol
SAGGMYMVQIEVRSPDKEIPFMIMVPEDDPKKIVDDIKEEIAEEAGADNVNIKIEVYRMDENGEWEWISAGG [r13_877_TrROS] | 0.866 ± 0.088 kcal/mol | 1.01 ± 0.13 kcal/mol | 1.02 ± 0.11 kcal/mol

Sequence | folding stability dG unfold [1] | folding stability dG unfold [2] | folding stability dG unfold [3]
SAGGGLGADALAKKFKELFPNAKVEKLPNGKVLFYIPETGKLIEIYDLDDEQIIKIIDPNTPKVYIISAGGS [r16_478_TrMRF] | 1.68 ± 0.077 kcal/mol | 0.986 ± 0.13 kcal/mol | 1.44 ± 0.11 kcal/mol
SAGGSAGGSAGGGKPVKVIVVEVGGKKVLVTFDEDTGKLTVYNLDTGKTETVTVSPEDLSAGGSAGGSAGGS [r10_669_TrROS_Hall] | 1.83 ± 0.12 kcal/mol | 1.67 ± 0.066 kcal/mol | 1.77 ± 0.16 kcal/mol
SAGGMIVEEETKPTPPLPDGTLVTESKVTIYINGKKITTTVKTTTLPDGTKVVETTLKGKKLKIILESAGGS [r16_448_JUSTAS] | 2.26 ± 0.07 kcal/mol | 3.193 ± 0.027 kcal/mol | 2.98 ± 0.075 kcal/mol
SAGGSAMKKTTATFYVRPDSLTVEIELGEKTKKLTFDPSVSIEEVKASLPDYVDEVKVKPASPSLSSAGGSA [r15_1058_JUSTAS] | -0.43 ± 0.24 kcal/mol | 0.529 ± 0.27 kcal/mol | 0.242 ± 0.14 kcal/mol
SAGGSAGGSAGGSGMVNLPEPIKVTKEEPLPDGSVRYTIEYPDSTITVFKYPDGIKIESSAGGSAGGSAGGS [r4_280_JUSTAS] | 0.35 ± 0.049 kcal/mol | 0.29 ± 0.24 kcal/mol | 0.393 ± 0.1 kcal/mol
SAGGSAGGMKEGEEFEIELPDKYKVKIRVKDNIIEVEFPPGLRVRAEILENGEVKVYLPPELKPSAGGSAGG [r6_970_TrMRF] | 2.04 ± 0.087 kcal/mol | 1.42 ± 0.048 kcal/mol | 1.7 ± 0.21 kcal/mol
SAGGSAGGSEVKTKVTLKREDPGSASTSTVDLPKEEAEKLIKEGKEIKLPSGKKASFTKVVPESAGGSAGGS [r12_432_JUSTAS] | -0.195 ± 0.11 kcal/mol | -0.18 ± 0.24 kcal/mol | -0.148 ± 0.2 kcal/mol
SAGGGNKPKIKVLLFFPDRVVELEFESPEEFIRALEEAGFPVIPVSEDSKYLVIEFPDGLRALADFSSAGGS [r8_365_TrMRF] | 2.44 ± 0.049 kcal/mol | 2.476 ± 0.014 kcal/mol | 2.48 ± 0.046 kcal/mol
SAGGSAGGNPVRYRVTITVTSPTGGSPVIELELDDPAELAEVEALAAELAAAPVTTTVTVEPIGSAGGSAGG [r6_743_JUSTAS] | 1.02 ± 0.049 kcal/mol | 0.584 ± 0.14 kcal/mol | 0.807 ± 0.072 kcal/mol
MTPTFTVTELPPDLLRVEYTDPVTGKRATFTLPVSPVGDGVRLSAEVDAEGLPEEVAAAIRDAALAALAAAS [r1_403_JUSTAS] | 1.48 ± 0.021 kcal/mol | 2.3 ± 0.023 kcal/mol | 2.06 ± 0.042 kcal/mol
SAGGSAGGSAGGKKTITVPKGAVVRITYKNGEKKEVKAGETITIEDLPEDVKIEVVKVKKSAGGSAGGSAGG [r7_968_TrROS_Hall] | 1.73 ± 0.06 kcal/mol | 2.44 ± 0.03 kcal/mol | 2.19 ± 0.094 kcal/mol
SAGGSAGGSMIKIKVKSKEDVEALIKELEKAGFKVKKVEEVDGKVYFTLENGEKIEIEVVPPESAGGSAGGS [r20_93_TrROS_Hall] | 4.24 ± 0.48 kcal/mol | 4.94 ± 0.12 kcal/mol | 5.05 ± 0.34 kcal/mol
SAGGSAGGSMLTVKITLPNGEKIEIEIEAESEEEAKAAAEKLLEALREAGVSLEDVKVEVVEPSAGGSAGGS [r12_295_TrROS_Hall] | 4.46 ± 0.67 kcal/mol | 2.92 ± 0.11 kcal/mol | 3.66 ± 0.29 kcal/mol
SAGGSAGGSAGGTGPDTPVTIETTVESVVYEGPEVKVVETFEKKITVTIPPTANPEKVSLSAGGSAGGSAGG [r7_591_JUSTAS] | -0.81 ± 0.43 kcal/mol | -1.06 ± 0.31 kcal/mol | < -1 kcal/mol
SAGGSAGGSAGGSLTFDGPDTKIEVYELDDDLLPVTIYTDSAPRTILVPPKEFLKLLASSAGGSAGGSAGGS [r4_346_TrMRF] | 0.0915 ± 0.071 kcal/mol | 0.449 ± 0.085 kcal/mol | 0.367 ± 0.089 kcal/mol
